Results taken from the supplement of paper PMC9233669.
Fewer inactive variants are shown than the library holds.

Key:
[1] = test system: biotinyl-Leu-oxazolone; assay: self-aminoacylation, catalytic enhancement (BLO) (fold over background); higher = more active; k-Seq, kA / k0A0; sequences stand for … in GGGAAUGGAUCCACAUCUACGAAUUC…UUCACUGCAGACUUGACGAAGCUG
Method in brief: (§1)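 The uncatalyzed rate is the low-activity peak of a bimodal Gaussian fit, and catalytic enhancement is median kA divided by it. The kA values came from pseudo-first-order fits, with 1000 bootstraps, of per-sequence fraction reacted measured by streptavidin capture, triplicate qPCR and Illumina sequencing. Mutagenized RNA pools with a 21-nt variable region (0.43 μM) were reacted with each biotinyl-aminoacyl-oxazolone at 2–1250 μM in 50 μL HEPES/NaCl/KCl/MgCl2/CaCl2 buffer with 5% acetonitrile, pH 6.9–7.0, for 90 minutes at room temperature.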

[2] = test system: biotinyl-Ile-oxazolone; assay: self-aminoacylation, catalytic enhancement (BIO) (fold over background); higher = more active; k-Seq, kA / k0A0; sequences stand for … in GGGAAUGGAUCCACAUCUACGAAUUC…UUCACUGCAGACUUGACGAAGCUG
Method in brief: as §1

[3] = test system: biotinyl-Val-oxazolone; assay: self-aminoacylation, catalytic enhancement (BVO) (fold over background); higher = more active; k-Seq, kA / k0A0; sequences stand for … in GGGAAUGGAUCCACAUCUACGAAUUC…UUCACUGCAGACUUGACGAAGCUG
Method in brief: as §1

[4] = test system: biotinyl-Trp-oxazolone; assay: self-aminoacylation, catalytic enhancement (BWO) (fold over background); higher = more active; k-Seq, kA / k0A0; sequences stand for … in GGGAAUGGAUCCACAUCUACGAAUUC…UUCACUGCAGACUUGACGAAGCUG
Method in brief: as §1

[5] = test system: biotinyl-Met-oxazolone; assay: self-aminoacylation, catalytic enhancement (BMO) (fold over background); higher = more active; k-Seq, kA / k0A0; sequences stand for … in GGGAAUGGAUCCACAUCUACGAAUUC…UUCACUGCAGACUUGACGAAGCUG
Method in brief: as §1

[6] = test system: biotinyl-Phe-oxazolone; assay: self-aminoacylation, catalytic enhancement (BFO) (fold over background); higher = more active; k-Seq, kA / k0A0; sequences stand for … in GGGAAUGGAUCCACAUCUACGAAUUC…UUCACUGCAGACUUGACGAAGCUG
Method in brief: as §1

Sequence | self-aminoacylation [1] | self-aminoacylation [2] | self-aminoacylation [3] | self-aminoacylation [4] | self-aminoacylation [5] | self-aminoacylation [6]
AUUACCCUGGAGAUCGAGUGA [Fam2.1 aminoacylation ribozyme variant] | 7.42 | 3.59 | 3.79 | 8.06 | 6.7 | 28.9
AAGGGUGCUAAUAGUCGCAAG [Fam3.1 aminoacylation ribozyme variant] | 1.5 | 1.72 | 1.36 | 2.93 | 1.74 | 6.2
CCACACUUCACGCAAUCGUUC [Fam1B.1 aminoacylation ribozyme variant] | 0.794 | 0.725 | 0.905 | 0.939 | 0.717 | 0.716
GUUCACCUAGAUCAUCGGGUG [Fam2.2 aminoacylation ribozyme variant] | 2.92 | 2.6 | 2.75 | 3.29 | 2.87 | 6.53
CUACUUAAAUCAAUCGGUCUG [Fam1A.1 aminoacylation ribozyme variant] | 0.793 | 0.887 | 0.91 | 0.691 | 0.702 | 0.911
AUACAACUAGGUCAUCGGGUG [Fam2.2 aminoacylation ribozyme variant] | 6.09 | 3.32 | 3.22 | 5.27 | 5.2 | 34.4
GUUACCCUGGUCAUCCAGUGA [Fam2.1 aminoacylation ribozyme variant] | 7.84 | 4.66 | 4.7 | 9.02 | 7.39 | 52.7
AUUCACUCAGGUCAUCGGGUG [Fam2.2 aminoacylation ribozyme variant] | 6.71 | 3.48 | 4.16 | 4.79 | 4.85 | 41.3
AUAACCGUGGUCAUCGAGUGA [Fam2.1 aminoacylation ribozyme variant] | 5.49 | 2.64 | 2.85 | 6.26 | 5.06 | 25.1
CCACACUUCAAGGCAUCGGUC [Fam1B.1 aminoacylation ribozyme variant] | 1.18 | 1.03 | 1.32 | 1.16 | 1.02 | 1.18
CCGUUUGCUAAUAGUCGCAAG [Fam3.1 aminoacylation ribozyme variant] | 1.02 | 1.22 | 0.972 | 1.1 | 0.83 | 1.94
CUACUUCAAACAACCCGUCUG [Fam1A.1 aminoacylation ribozyme variant] | 0.911 | 0.906 | 1.04 | 0.923 | 0.657 | 0.796
AUUCACCUAGGUGCUCGGGUG [Fam2.2 aminoacylation ribozyme variant] | 4.46 | 3.07 | 3.1 | 3.64 | 3.67 | 31.1
CGACACUUCAAGCAAGCGGUC [Fam1B.1 aminoacylation ribozyme variant] | 1.23 | 1.09 | 0.939 | 1.21 | 1.27 | 0.837
CUACUGCAAACAAUCGCUCUG [Fam1A.1 aminoacylation ribozyme variant] | 1.2 | 1.2 | 1.08 | 0.702 | 0.898 | 3.05
AUUCACCUAGGUCACCGGGAG [Fam2.2 aminoacylation ribozyme variant] | 1.77 | 1.49 | 1.43 | 1.81 | 2.05 | 5.9
AAGUUUGCUAAUAGUCGCAGA [Fam3.1 aminoacylation ribozyme variant] | 1.12 | 1.54 | 0.914 | 0.729 | 1.03 | 1.77
AUUACCCUGGACCUCGAGUGA [Fam2.1 aminoacylation ribozyme variant] | 3.9 | 1.88 | 2.4 | 3.16 | 3.68 | 5.71
CCACGCUUCAAGCAUUCGGUC [Fam1B.1 aminoacylation ribozyme variant] | 1.11 | 1.24 | 1.93 | 1.31 | 1.06 | 0.774
AAGUUUGCUAAGAGUCUCAAG [Fam3.1 aminoacylation ribozyme variant] | 0.775 | 0.81 | 0.823 | 1.01 | 0.651 | 1.02
CCACGCUUCAAGGAAUCGGUC [Fam1B.1 aminoacylation ribozyme variant] | 1.19 | 1.11 | 1.1 | 11 | 1.22 | 11.6
AUUCACCUAGGACACCGGGUG [Fam2.2 aminoacylation ribozyme variant] | 3.94 | 3.57 | 3.63 | 3.19 | 3.51 | 15.6
CUACGUCAAACAAUCGGGCUG [Fam1A.1 aminoacylation ribozyme variant] | 2.05 | 1.9 | 2.33 | 2.32 | 2.42 | 0.86
AGUACCCUGGUUAUCGAGUGA [Fam2.1 aminoacylation ribozyme variant] | 9.55 | 3.63 | 4.26 | 9.24 | 7.87 | 37.4
CUAAUUCAAACAUUCGGUCUG [Fam1A.1 aminoacylation ribozyme variant] | 1.02 | 1.05 | 0.979 | 1.02 | 1.03 | 0.983
AUUACCCUGUUCAUCGAGUGG [Fam2.1 aminoacylation ribozyme variant] | 1.25 | 1.08 | 1.29 | 1.48 | 1.03 | 0.962

Sequence | self-aminoacylation [1] | self-aminoacylation [2] | self-aminoacylation [3] | self-aminoacylation [4] | self-aminoacylation [5] | self-aminoacylation [6]
AUUACCUCGGUCAUCGAGUGA [Fam2.1 aminoacylation ribozyme variant] | 5.32 | 2.82 | 2.87 | 6.06 | 5.12 | 20.8
ACGUUUGCUAAUAGACGCAAG [Fam3.1 aminoacylation ribozyme variant] | 0.849 | 1.3 | 1.12 | 1.11 | 0.935 | 0.853
CCACACUUCAAGCACGCGGUC [Fam1B.1 aminoacylation ribozyme variant] | 1.54 | 1.76 | 2.1 | 1.91 | 2.3 | 0.928
CCACACUACUAGCAAUCGGUC [Fam1B.1 aminoacylation ribozyme variant] | 0.71 | 0.798 | 0.753 | 0.623 | 0.694 | 0.743
AUUCACCUAGGUCGUGGGGUG [Fam2.2 aminoacylation ribozyme variant] | 1.97 | 1.54 | 1.61 | 1.66 | 1.5 | 5.74
AAUACCCUGGUCACCGAGUGA [Fam2.1 aminoacylation ribozyme variant] | 6.58 | 4.13 | 3.33 | 6.81 | 6.98 | 39.1
CUACUUCAAACAAUCUGUAUG [Fam1A.1 aminoacylation ribozyme variant] | 0.607 | 0.642 | 0.73 | 0.471 | 0.647 | 0.672
AUUCACCUCGGUCCUCGGGUG [Fam2.2 aminoacylation ribozyme variant] | 7.19 | 4.17 | 4.23 | 7.07 | 6.33 | 53.2
AAGUUUGCUAUUAGUCGCAUG [Fam3.1 aminoacylation ribozyme variant] | 1.21 | 1.01 | 0.79 | 0.858 | 0.953 | 1.98
UUCCACCUAGGUCAUCGGGUG [Fam2.2 aminoacylation ribozyme variant] | 7.41 | 5.71 | 5.42 | 7.67 | 7.25 | 48.6
CUUCACCUAGGUCAUCUGGUG [Fam2.2 aminoacylation ribozyme variant] | 2.25 | 1.58 | 1.74 | 2.15 | 1.79 | 4.76
CUAGACUUCAAGCAAUCGGUC [Fam1B.1 aminoacylation ribozyme variant] | 1.37 | 0.981 | 0.979 | 16.2 | 1.05 | 34.1
AUUCACCUUGGUCAUCCGGUG [Fam2.2 aminoacylation ribozyme variant] | 11.5 | 6.27 | 6.17 | 7.75 | 8.93 | 60.2
AUUAACCUGGUCAUCGAUUGA [Fam2.1 aminoacylation ribozyme variant] | 0.88 | 0.963 | 0.818 | 1.15 | 0.959 | 0.76
CCACACUUCAAGAAAUCGGCC [Fam1B.1 aminoacylation ribozyme variant] | 1.78 | 1.96 | 2.16 | 3.06 | 1.97 | 3.48
CCACACCUCGAGCAAUCGGUC [Fam1B.1 aminoacylation ribozyme variant] | 1.11 | 1.39 | 1.88 | 1.95 | 1.18 | 0.967
CCACCCUUCAAGCAAUCGGUU [Fam1B.1 aminoacylation ribozyme variant] | 1.91 | 1.47 | 1.67 | 4.11 | 1.42 | 2.79
CCCCACUUCAAGCAAUCAGUC [Fam1B.1 aminoacylation ribozyme variant] | 1.13 | 0.981 | 1.14 | 6.51 | 0.987 | 19.8
AUUAUCCUGGUCUUCGAGUGA [Fam2.1 aminoacylation ribozyme variant] | 5.95 | 3.26 | 2.93 | 7.67 | 5.8 | 37.6
CUUCUUCAAAGAAUCGGUCUG [Fam1A.1 aminoacylation ribozyme variant] | 1.07 | 0.956 | 0.889 | 2.95 | 1.05 | 3.04
AAGUUUGCUAACAGACGCAAG [Fam3.1 aminoacylation ribozyme variant] | 0.38 | 0.512 | 0.733 | 0.444 | 0.478 | 1.06
AUUACCCUCGUCAUAGAGUGA [Fam2.1 aminoacylation ribozyme variant] | 4.19 | 2.43 | 2.72 | 4.65 | 4.53 | 11.5
CUACAUCAAACAAACGGUCUG [Fam1A.1 aminoacylation ribozyme variant] | 0.771 | 1.07 | 0.901 | 1.09 | 1 | 1.01
CUACACUUGAAGCAAUCGGUC [Fam1B.1 aminoacylation ribozyme variant] | 0.583 | 0.662 | 0.64 | 0.509 | 0.597 | 0.507
AUUACCCCGGUCACCGAGUGA [Fam2.1 aminoacylation ribozyme variant] | 13 | 5.59 | 4.77 | 12.3 | 12.7 | 95.8
